Test results reported in patent US20220411483A1 (Chugai, published 2022).

T1: FcgRIIaR (human, UniProt P12318 34-217)
T1 construct: extracellular domain; also called FcγRIIa R type; FcγRIIa (R type)
T1 sequence (looked up): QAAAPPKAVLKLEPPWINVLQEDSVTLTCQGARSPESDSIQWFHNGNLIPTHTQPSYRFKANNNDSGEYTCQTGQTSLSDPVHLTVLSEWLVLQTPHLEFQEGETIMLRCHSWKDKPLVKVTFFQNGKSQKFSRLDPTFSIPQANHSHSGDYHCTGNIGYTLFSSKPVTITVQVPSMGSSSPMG

T2: FcgRIIb (human, UniProt P31994 43-217)
T2 construct: extracellular domain; also called FcγRIIb
T2 sequence (looked up): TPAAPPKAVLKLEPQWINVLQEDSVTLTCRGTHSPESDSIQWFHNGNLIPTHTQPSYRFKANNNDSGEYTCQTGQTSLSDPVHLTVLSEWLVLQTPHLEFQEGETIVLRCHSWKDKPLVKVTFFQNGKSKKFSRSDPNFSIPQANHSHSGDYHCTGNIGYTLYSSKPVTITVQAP


What was measured:
[1] = target: T1, FcgRIIaR; test: SPR, amount bound per captured antibody
[2] = target: T2, FcgRIIb; test: SPR, amount bound per captured antibody

| Binder | Relative FcgRIIaR-binding Activity [1] [IL6R-G1d/IL6R-L=100] | Relative FcgRIIb-binding Activity [2] [IL6R-G1d/IL6R-L=100] |
| --- | --- | --- |
| IL6R-P614/IL6R-L (antibody, human IgG1, kappa) heavy: QVQLQESGPGLVKPSETLSLTCAVSGHSISHDHAWSWVRQPPGEGLEWIGFISYSGITNYNPSLQGRVTISRDNSKNTLYLQMNSLRAEDTAVYYCARSLARTTAMDYWGEGTLVTVSSASTKGPSVFPLAPSSKSTSGGTAALGCLVKDYFPEPVTVSWNSGALTSGVHTFPAVLQSSGLYSLSSVVTVPSSSLGTQTYICNVNHKPSNTKVDKKVEPKSCDKTHTCPPCPAPDLAGDDSVFLFPPKPKDTLMISRTPEVTCVVIDVAEEDGEVKFNWYVDGVEVHNAKTKPREEQDNSTYRVVSVLTVLHQDWLNGKEYKCKVSNKALPRPIEKTISKAKGQPREPQVYTLPPSRDELTKNQVSLTCLVKGFYPSDIAVEWESNGQPENNYKTTPMVLDSDGSFFLYSKLTVDKSRWQQGNVFSCSVMHEALHNHYTQKSLSLSP light: not shown | 69.5 | 176 |
| IL6R-P616/IL6R-L (antibody, human IgG1, kappa) heavy: QVQLQESGPGLVKPSETLSLTCAVSGHSISHDHAWSWVRQPPGEGLEWIGFISYSGITNYNPSLQGRVTISRDNSKNTLYLQMNSLRAEDTAVYYCARSLARTTAMDYWGEGTLVTVSSASTKGPSVFPLAPSSKSTSGGTAALGCLVKDYFPEPVTVSWNSGALTSGVHTFPAVLQSSGLYSLSSVVTVPSSSLGTQTYICNVNHKPSNTKVDKKVEPKSCDKTHTCPPCPAPDAAGGDSVFLFPPKPKDTLMISRTPEVTCVVIDVAEEDGEVKFNWYVDGVEVHNAKTKPREEQYNSTYRVVSVLTVLHQDWLNGKEYKCKVSNKALPAPIEKTISKAKGQPREPQVYTLPPSRDELTKNQVSLTCLVKGFYPSDIAVEWESNGQPENNYKTTPPVLDSDGSFFLYSKLTVDKSRWQQGNVFSCSVMHEALHNHYTQKSLSLSP light: not shown | 41.8 | 89.2 |
| IL6R-P617/IL6R-L (antibody, human IgG1, kappa) heavy: QVQLQESGPGLVKPSETLSLTCAVSGHSISHDHAWSWVRQPPGEGLEWIGFISYSGITNYNPSLQGRVTISRDNSKNTLYLQMNSLRAEDTAVYYCARSLARTTAMDYWGEGTLVTVSSASTKGPSVFPLAPSSKSTSGGTAALGCLVKDYFPEPVTVSWNSGALTSGVHTFPAVLQSSGLYSLSSVVTVPSSSLGTQTYICNVNHKPSNTKVDKKVEPKSCDKTHTCPPCPAPDAAGDDSVFLFPPKPKDTLMISRTPEVTCVVIDVAEEDGEVKFNWYVDGVEVHNAKTKPREEQDNSTYRVVSVLTVLHQDWLNGKEYKCKVSNKALPRPIEKTISKAKGQPREPQVYTLPPSRDELTKNQVSLTCLVKGFYPSDIAVEWESNGQPENNYKTTPMVLDSDGSFFLYSKLTVDKSRWQQGNVFSCSVMHEALHNHYTQKSLSLSP light: not shown | 49.2 | 158 |
| IL6R-P623/IL6R-L (antibody, human IgG1, kappa) heavy: QVQLQESGPGLVKPSETLSLTCAVSGHSISHDHAWSWVRQPPGEGLEWIGFISYSGITNYNPSLQGRVTISRDNSKNTLYLQMNSLRAEDTAVYYCARSLARTTAMDYWGEGTLVTVSSASTKGPSVFPLAPSSKSTSGGTAALGCLVKDYFPEPVTVSWNSGALTSGVHTFPAVLQSSGLYSLSSVVTVPSSSLGTQTYICNVNHKPSNTKVDKKVEPKSCDKTHTCPPCPAPDHLGGDSVFLFPPKPKDTLMISRTPEVTCVVIDVAEEDGEVKFNWYVDGVEVHNAKTKPREEQYNSTYRVVSVLTVLHQDWLNGKEYKCKVSNKALPAPIEKTISKAKGQPREPQVYTLPPSRDELTKNQVSLTCLVKGFYPSDIAVEWESNGQPENNYKTTPPVLDSDGSFFLYSKLTVDKSRWQQGNVFSCSVMHEALHNHYTQKSLSLSP light: not shown | 44.7 | 152 |
| IL6R-P624/IL6R-L (antibody, human IgG1, kappa) heavy: QVQLQESGPGLVKPSETLSLTCAVSGHSISHDHAWSWVRQPPGEGLEWIGFISYSGITNYNPSLQGRVTISRDNSKNTLYLQMNSLRAEDTAVYYCARSLARTTAMDYWGEGTLVTVSSASTKGPSVFPLAPSSKSTSGGTAALGCLVKDYFPEPVTVSWNSGALTSGVHTFPAVLQSSGLYSLSSVVTVPSSSLGTQTYICNVNHKPSNTKVDKKVEPKSCDKTHTCPPCPAPDNLGGDSVFLFPPKPKDTLMISRTPEVTCVVIDVAEEDGEVKFNWYVDGVEVHNAKTKPREEQYNSTYRVVSVLTVLHQDWLNGKEYKCKVSNKALPAPIEKTISKAKGQPREPQVYTLPPSRDELTKNQVSLTCLVKGFYPSDIAVEWESNGQPENNYKTTPPVLDSDGSFFLYSKLTVDKSRWQQGNVFSCSVMHEALHNHYTQKSLSLSP light: not shown | 67.1 | 173 |
| IL6R-P627/IL6R-L (antibody, human IgG1, kappa) heavy: QVQLQESGPGLVKPSETLSLTCAVSGHSISHDHAWSWVRQPPGEGLEWIGFISYSGITNYNPSLQGRVTISRDNSKNTLYLQMNSLRAEDTAVYYCARSLARTTAMDYWGEGTLVTVSSASTKGPSVFPLAPSSKSTSGGTAALGCLVKDYFPEPVTVSWNSGALTSGVHTFPAVLQSSGLYSLSSVVTVPSSSLGTQTYICNVNHKPSNTKVDKKVEPKSCDKTHTCPPCPAPDLLQGDSVFLFPPKPKDTLMISRTPEVTCVVIDVAEEDGEVKFNWYVDGVEVHNAKTKPREEQYNSTYRVVSVLTVLHQDWLNGKEYKCKVSNKALPAPIEKTISKAKGQPREPQVYTLPPSRDELTKNQVSLTCLVKGFYPSDIAVEWESNGQPENNYKTTPPVLDSDGSFFLYSKLTVDKSRWQQGNVFSCSVMHEALHNHYTQKSLSLSP light: not shown | 48.5 | 138 |
| IL6R-P628/IL6R-L (antibody, human IgG1, kappa) heavy: QVQLQESGPGLVKPSETLSLTCAVSGHSISHDHAWSWVRQPPGEGLEWIGFISYSGITNYNPSLQGRVTISRDNSKNTLYLQMNSLRAEDTAVYYCARSLARTTAMDYWGEGTLVTVSSASTKGPSVFPLAPSSKSTSGGTAALGCLVKDYFPEPVTVSWNSGALTSGVHTFPAVLQSSGLYSLSSVVTVPSSSLGTQTYICNVNHKPSNTKVDKKVEPKSCDKTHTCPPCPAPDLLGRDSVFLFPPKPKDTLMISRTPEVTCVVIDVAEEDGEVKFNWYVDGVEVHNAKTKPREEQYNSTYRVVSVLTVLHQDWLNGKEYKCKVSNKALPAPIEKTISKAKGQPREPQVYTLPPSRDELTKNQVSLTCLVKGFYPSDIAVEWESNGQPENNYKTTPPVLDSDGSFFLYSKLTVDKSRWQQGNVFSCSVMHEALHNHYTQKSLSLSP light: not shown | 48.1 | 176 |
| IL6R-P630/IL6R-L (antibody, human IgG1, kappa) heavy: QVQLQESGPGLVKPSETLSLTCAVSGHSISHDHAWSWVRQPPGEGLEWIGFISYSGITNYNPSLQGRVTISRDNSKNTLYLQMNSLRAEDTAVYYCARSLARTTAMDYWGEGTLVTVSSASTKGPSVFPLAPSSKSTSGGTAALGCLVKDYFPEPVTVSWNSGALTSGVHTFPAVLQSSGLYSLSSVVTVPSSSLGTQTYICNVNHKPSNTKVDKKVEPKSCDKTHTCPPCPAPDLLGGDSVFLFPPKPKDTLMISRTPEVTCVVIKVAEEDGEVKFNWYVDGVEVHNAKTKPREEQYNSTYRVVSVLTVLHQDWLNGKEYKCKVSNKALPAPIEKTISKAKGQPREPQVYTLPPSRDELTKNQVSLTCLVKGFYPSDIAVEWESNGQPENNYKTTPPVLDSDGSFFLYSKLTVDKSRWQQGNVFSCSVMHEALHNHYTQKSLSLSP light: not shown | 4.1 | 7.1 |
| IL6R-P632/IL6R-L (antibody, human IgG1, kappa) heavy: QVQLQESGPGLVKPSETLSLTCAVSGHSISHDHAWSWVRQPPGEGLEWIGFISYSGITNYNPSLQGRVTISRDNSKNTLYLQMNSLRAEDTAVYYCARSLARTTAMDYWGEGTLVTVSSASTKGPSVFPLAPSSKSTSGGTAALGCLVKDYFPEPVTVSWNSGALTSGVHTFPAVLQSSGLYSLSSVVTVPSSSLGTQTYICNVNHKPSNTKVDKKVEPKSCDKTHTCPPCPAPDLLGGDSVFLFPPKPKDTLMISRTPEVTCVVIRVAEEDGEVKFNWYVDGVEVHNAKTKPREEQYNSTYRVVSVLTVLHQDWLNGKEYKCKVSNKALPAPIEKTISKAKGQPREPQVYTLPPSRDELTKNQVSLTCLVKGFYPSDIAVEWESNGQPENNYKTTPPVLDSDGSFFLYSKLTVDKSRWQQGNVFSCSVMHEALHNHYTQKSLSLSP light: not shown | 4.1 | 8 |
| IL6R-P633/IL6R-L (antibody, human IgG1, kappa) heavy: QVQLQESGPGLVKPSETLSLTCAVSGHSISHDHAWSWVRQPPGEGLEWIGFISYSGITNYNPSLQGRVTISRDNSKNTLYLQMNSLRAEDTAVYYCARSLARTTAMDYWGEGTLVTVSSASTKGPSVFPLAPSSKSTSGGTAALGCLVKDYFPEPVTVSWNSGALTSGVHTFPAVLQSSGLYSLSSVVTVPSSSLGTQTYICNVNHKPSNTKVDKKVEPKSCDKTHTCPPCPAPDLLGGDSVFLFPPKPKDTLMISRTPEVTCVVISVAEEDGEVKFNWYVDGVEVHNAKTKPREEQYNSTYRVVSVLTVLHQDWLNGKEYKCKVSNKALPAPIEKTISKAKGQPREPQVYTLPPSRDELTKNQVSLTCLVKGFYPSDIAVEWESNGQPENNYKTTPPVLDSDGSFFLYSKLTVDKSRWQQGNVFSCSVMHEALHNHYTQKSLSLSP light: not shown | 15.3 | 56.4 |
| IL6R-P634/IL6R-L (antibody, human IgG1, kappa) heavy: QVQLQESGPGLVKPSETLSLTCAVSGHSISHDHAWSWVRQPPGEGLEWIGFISYSGITNYNPSLQGRVTISRDNSKNTLYLQMNSLRAEDTAVYYCARSLARTTAMDYWGEGTLVTVSSASTKGPSVFPLAPSSKSTSGGTAALGCLVKDYFPEPVTVSWNSGALTSGVHTFPAVLQSSGLYSLSSVVTVPSSSLGTQTYICNVNHKPSNTKVDKKVEPKSCDKTHTCPPCPAPDLLGGDSVFLFPPKPKDTLMISRTPEVTCVVIVVAEEDGEVKFNWYVDGVEVHNAKTKPREEQYNSTYRVVSVLTVLHQDWLNGKEYKCKVSNKALPAPIEKTISKAKGQPREPQVYTLPPSRDELTKNQVSLTCLVKGFYPSDIAVEWESNGQPENNYKTTPPVLDSDGSFFLYSKLTVDKSRWQQGNVFSCSVMHEALHNHYTQKSLSLSP light: not shown | 2.8 | 6.5 |
